For this experiment, the target named is human IL-17A (human) (UniProt Q16552). The experiment in a line: BLI Octet Red 96; Fab on anti-FABCH1 sensors, IL-17A 30 µg/ml as analyte, 1:1 model. (In general: In BLI a coated tip is dipped into the sample, and binding shifts an interference pattern.)

By koff is commonly meant the first-order rate constant of dissociation. Read a low koff as a long-lived complex.

Some results are limits rather than exact numbers.

human IL-17A (human), sequence (Q16552 20-155 limits assumed): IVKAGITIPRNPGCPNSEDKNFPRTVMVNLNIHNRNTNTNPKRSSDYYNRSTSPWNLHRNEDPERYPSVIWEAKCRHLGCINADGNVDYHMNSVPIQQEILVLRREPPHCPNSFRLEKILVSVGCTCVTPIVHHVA

B1: 3VHHVK4B11 Fab (Fab, part only; not given: Light chain VK4B11, tags, not shown: small tags and cut ends)
heavy: QVQLQQSGGGSVQAGGSLRLSCAASGGTFATSPMGWLRQAPGKEREFVAAISPSGGDRIYDDSVKGRFTISRDNAGYFIYLQMNSLKPEDTARYYCAVRRRFDGTSYYTGDYDSWGQGTLVTVSS
Take B1: the koff was < 2.27e-06 s⁻¹.

Source of the values: patent US20210332120A1.
